Measured values: PMC6922461 (PLoS Biology, 2019)

Key:
[1] = target: the molecule itself; assay: refolding of mixed subunits, anion exchange chromatography, SDS-PAGE densitometry; subunits from washed inclusion bodies mixed at 3:1, refolded by rapid dilution, tetramers separated on Mono Q; boiled peak samples on reducing SDS-PAGE, bands normalised for molecular weight and converted to a subunit ratio
[2] = target: Strep-Tactin-SpyCatcherΔ subunit; assay: as above; details: both partners purified
Strep-Tactin-SpyCatcherΔ subunit, sequence (chain, as listed by the source mutant): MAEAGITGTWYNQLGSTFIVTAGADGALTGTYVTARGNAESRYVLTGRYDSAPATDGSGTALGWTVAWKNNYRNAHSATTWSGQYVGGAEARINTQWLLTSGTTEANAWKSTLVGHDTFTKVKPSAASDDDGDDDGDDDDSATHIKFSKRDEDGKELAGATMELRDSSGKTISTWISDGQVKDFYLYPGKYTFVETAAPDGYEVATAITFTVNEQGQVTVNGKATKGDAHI

B1: dead streptavidin subunit (other)
chain: MAEAGITGTWYAQLGDTFIVTAGADGALTGTYEAAVGNAESRYVLTGRYDSAPATDGSGTALGWTVAWKNNYRNAHSATTWSGQYVGGAEARINTQWLLTSGTTEANAWKSTLVGHDTFTKVKPSAAS
notes: also called dead streptavidin monomer
binding result [1]: binds | stoichiometry N [2]: 3.7 dead streptavidin per Strep-Tactin-SpyCatcherΔ
